# B1: T-box transcription factor TBX5 (Mus musculus), P70326 (parent)
# chain: MADTDEGFGLARTPLEPDSKDRSCDSKPESALGAPSKSPSSPQAAFTQQGMEGIKVFLHERELWLKFHEVGTEMIITKAGRRMFPSYKVKVTGLNPKTKYILLMDIVPADDHRYKFADNKWSVTGKAEPAMPGRLYVHPDSPATGAHWMRQLVSFQKLKLTNNHLDPFGHIILNSMHKYQPRLHIVKADENNGFGSKNTAFCTHVFPETAFIAVTSYQNHKITQLKIENNPFAKGFRGSDDLELHRMSRMQSKEYPVVPRSTVRHKVTSNHSPFSSETRALSTSSNLGSQYQCENGVSGPSQDLLPPPNPYPLAQEHSQIYHCTKRKDEECSSTEHPYKKPYMETSPSEEDTFYRSGYPQQQGLSTSYRTESAQRQACMYASSAPPSEPVPSLEDISCNTWPSMPSYSSCTVTTVQPMDRLPYQHFSAHFTSGPLVPRLAGMANHGSPQLGEGMFQHQTSVAHQPVVRQCGPQTGLQSPGGLQPPEFLYTHGVPRTLSPHQYHSVHGVGMVPEWSENS
# Tests used:
# [1] = variants of: B1; conditions: with klf13_mouse Klf13, Q9JJZ6
# [2] = variants of: B1; conditions: with nkx25_mouse Nkx2-5, P42582
# Chain of nkx25_mouse Nkx2-5, P42582 (P42582 whole entry): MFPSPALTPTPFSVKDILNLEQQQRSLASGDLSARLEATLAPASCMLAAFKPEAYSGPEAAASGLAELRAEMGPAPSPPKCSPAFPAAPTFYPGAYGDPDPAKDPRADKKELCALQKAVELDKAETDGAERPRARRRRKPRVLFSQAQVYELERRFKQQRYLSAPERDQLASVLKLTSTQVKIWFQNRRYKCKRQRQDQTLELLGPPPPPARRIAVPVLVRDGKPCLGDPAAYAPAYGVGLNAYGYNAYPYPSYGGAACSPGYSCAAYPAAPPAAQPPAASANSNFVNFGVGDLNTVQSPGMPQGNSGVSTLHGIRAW
# Chain of klf13_mouse Klf13, Q9JJZ6 (Q9JJZ6 whole entry): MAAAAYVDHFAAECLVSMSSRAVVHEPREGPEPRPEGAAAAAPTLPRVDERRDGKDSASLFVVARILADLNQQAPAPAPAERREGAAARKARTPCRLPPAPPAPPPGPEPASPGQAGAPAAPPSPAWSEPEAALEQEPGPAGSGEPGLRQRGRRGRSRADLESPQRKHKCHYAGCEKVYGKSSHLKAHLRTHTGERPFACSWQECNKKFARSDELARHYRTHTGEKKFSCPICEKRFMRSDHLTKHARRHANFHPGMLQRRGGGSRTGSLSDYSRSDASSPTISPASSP
variant,measurement,setting,value
I54T,effect of a mutation on the interaction,[1],with no effect
same,effect of a mutation on the interaction,[2],with no effect
A79V,effect of a mutation on the interaction,[1],decreasing interaction strength
same,effect of a mutation on the interaction,[2],decreasing interaction strength
G80Q,effect of a mutation on the interaction,[1],decreasing interaction strength
same,effect of a mutation on the interaction,[2],decreasing interaction strength
P96L,effect of a mutation on the interaction,[1],with no effect
same,effect of a mutation on the interaction,[2],decreasing interaction strength
Y100C,effect of a mutation on the interaction,[1],decreasing interaction strength
same,effect of a mutation on the interaction,[2],decreasing interaction strength
L102P,effect of a mutation on the interaction,[1],decreasing interaction strength
same,effect of a mutation on the interaction,[2],decreasing interaction strength
W121G,effect of a mutation on the interaction,[1],decreasing interaction strength
same,effect of a mutation on the interaction,[2],with no effect
R134C,effect of a mutation on the interaction,[1],with no effect
same,effect of a mutation on the interaction,[2],with no effect
T144I,effect of a mutation on the interaction,[1],decreasing interaction strength
same,effect of a mutation on the interaction,[2],decreasing interaction strength
G169R,effect of a mutation on the interaction,[1],decreasing interaction strength
same,effect of a mutation on the interaction,[2],decreasing interaction strength
G195A,effect of a mutation on the interaction,[1],with no effect
same,effect of a mutation on the interaction,[2],decreasing interaction strength
T223M,effect of a mutation on the interaction,[1],decreasing interaction strength
same,effect of a mutation on the interaction,[2],decreasing interaction strength
R237Q,effect of a mutation on the interaction,[1],decreasing interaction strength
same,effect of a mutation on the interaction,[2],decreasing interaction strength

# — IntAct's records for PubMed 28164238
